{
  "source": "the DeepSol protein solubility set",
  "data": [
    {"test": "soluble on expression in E. coli; label from the status in PepcDB or PDB records", "values": [
      {"sequence": "MSRLTELLRQVRKADAQLGTDLEAEVAALTKRRTFGLVFEQHQPEAVELPGRVVRRGDKVRVLPPRGGTKAGDQRLWRTTRIECVDGQRVAHLAELDVEEPETRAVLADDVVVVAEFRDRIYPGLVETGRVERGGDKPFHTVVNAENYHALEMLTYTHRHSIDAIYIDPPYNTGARDWKYDNDYVASDDDYRHSKWLAFMERRLKICRELMRSDATLVATIDEHEVNRLGVLLDQLFPESTRQLVTIVNNPKGVTQGYLSRVEEYAFFVFGPDARIGSVDDDLLTHRDMADAEGELQRPRWKGLLRSGDDSLRADRKDMFYPVWFDESTGRLSHAGEALPLDETPDFSPQDGLTPIWPIRRDMKEGPTRAAPRRSILDYALHPHL", "soluble on expression in E. coli": "not soluble"},
      {"sequence": "MSRSSVTGKEFVIRYVFNDVSNMNENDMRISTVEEYFNVPWIFQIQRNNGNLGIYLRCRKLKGQEMWSMFTELELKLISVYSDTRDQKCKTDMCFGHDSGKFYSSYGWSEFISWNELETSFMDAGSITVEARVIINKSIGFYTPKLMNFDEKKKEYSDIVVLVDGQRFYLLKKFLAFHSTFFESLFLGGFYEAKLTEVPLYDIDVDDFQKFLEVLYGFPVINDNTVEGILLLADMYQTPLVSELCEDFLIQTTGKTYKKKLQMAIKFNLENLKQFCISMIKSPFDLRSMIPSDISSIDHSTLAALFTKSLTLMK", "soluble on expression in E. coli": "not soluble"},
      {"sequence": "MSRVSTAPSGKPTAAHALLSRLRDHGVGKVFGVVGREAASILFDEVEGIDFVLTRHEFTAGVAADVLARITGRPQACWATLGPGMTNLSTGIATSVLDRSPVIALAAQSESHDIFPNDTHQCLDSVAIVAPMSKYAVELQRPHEITDLVDSAVNAAMTEPVGPSFISLPVDLLGSSEGIDTTVPNPPANTPAKPVGVVADGWQKAADQAAALLAEAKHPVLVVGAAAIRSGAVPAIRALAERLNIPVITTYIAKGVLPVGHELNYGAVTGYMDGILNFPALQTMFAPVDLVLTVGYDYAEDLRPSMWQKGIEKKTVRISPTVNPIPRVYRPDVDVVTDVLAFVEHFETATASFGAKQRHDIEPLRARIAEFLADPETYEDGMRVHQVIDSMNTVMEEAAEPGEGTIVSDIGFFRHYGVLFARADQPFGFLTSAGCSSFGYGIPAAIGAQMARPDQPTFLIAGDGGFHSNSSDLETIARLNLPIVTVVVNNDTNGLIELYQNIGHHRSHDPAVKFGGVDFVALAEANGVDATRATNREELLAALRKGAELGRPFLIEVPVNYDFQPGGFGALSI", "soluble on expression in E. coli": "soluble"},
      {"sequence": "MSRVVLNVDSYEGNDTPSAEIARFVVLYGKASTRKHKIWEGDGLLVCFTDSCLLKSEDERDVICRSSALKGLDQLEDGRIINIGSWSVEIQERIATGPPQKPISAQKPEIQSPMPPMTPGNSENVENRKRGGFSSPFLGIELPKPLSKRSATFVPPLIGSESSSSGGSSSSTIQEKIPPFILNEQDILDRKTTSAVTVDTRFARHLRPHQKSGIQFIFDRLRRGSGKNGGGGGAILADDMGLGKSLQTMAATWALLKGSKTAQQLANSCLIIVPSSLVNNWKAEFDKWWRLMRFPAVIALTANDITTYQSTIKLMPYLVISYDLAQRHVEKLKIIRFDVMVCDEGHKLKNLDGKLRKTLLSLEIPRRLILTGTPMQNDFEEFYSLLDFVRPSVFGSIVEFRKMCSDRPEQLNELIDECMLRRTAADVDLKHLPEKHEYILFCAASPIQKHVHSEICDYMTGDALSLIFFARQLANHPKLLLDNLREKTEKSKAHKHSPLLLAFDGAHMPRGGVKESGKLTALVDMIKCFRLLQECTVIVSNYIETLDMIQQLCEYLNFKVLRLDGKTQVPDRQKLVRTFNDHRDPSNIFLLSTKAGGVGLNLIGASRLVLFDSDWNPANDQQAMARIWRDGQVRPCHIYRLITTGTIEEKMLQRQIKKTGLGCVIDAIEVGDTIATFTDEDLKDIFTFTGSATECNTHDLCECPCDGCGMLENEMDEEDDGDDVVENDAEKIDKSGKIDKIDSDDDEEADDEELEADVTDEVVEDSQEPPEATKPAVAAAGLRTIASLAELSRWRHFSPRHADTWHHFMTNAGLSQVDTDVELTFAFYQESQY", "soluble on expression in E. coli": "not soluble"},
      {"sequence": "MSSAAQAYARTAQRTASPREIEAQALLKAAKQLQDVVTNWEEKGAIGLQEALLFNRKLWSIFVTEAMRDDNPQSIEIRQNIANIGVFVMSQSSALQIKPEVERLQALIDINRNIAAGLSGRP", "soluble on expression in E. coli": "not soluble"},
      {"sequence": "MSSDSDSDFGKEASKTPKRRITDCLFDSDDEVLESPGREELRKLLLSDYEDVGSVTIDTPKLKNRNVRLRGAGRPQKGGDDYKDYGRSEMEQFLRLVSDKPFLWHTKDSDFHRKKEKGMPAWAEIERTCNTFMGKGRTPGKTAAALFKKMATTYKSHLTRIQKAPSGSAVTPKKDLFCYAELMSFMDEDITHRAPTCSFIVGAGPDVDVLPTETSSSKKK", "soluble on expression in E. coli": "not soluble"}
    ]}
  ]
}
